In the experiment the target is chimeric mouse h-ferritin-M6A (recombinant) (mouse | not stated). Briefly: SEC; HiLoad 26/60 Superdex 200; 20 mM Tris-HCl pH 8, 200 mM KCl, 10% glycerol, 2 mM TCEP; elution volume compared with horse spleen ferritin (~440 kDa). In general terms: In gel filtration, larger molecules generally elute earlier.

For the substance “chimeric mouse h-ferritin-M6A (recombinant)”, the stoichiometry N (as a rule, a count of units in the complex or per binding partner) was 24.

(Values after PMC4876375.)
